Results published in ChEMBL document CHEMBL2074389, “Isolation of a multispecific organic anion and cardiac glycoside transporter from rat brain” (Proc Natl Acad Sci U S A, 1997).

Key:
Type in all cases: functional, cell-based, Oocyte
[1] = biological target: T1, Solute carrier organic anion transporter family member 1A4 (Rattus norvegicus, UniProt O35913); assay: (§1) TP_TRANSPORTER: uptake in Xenopus laevis oocytes; settings: oocyte
T1 sequence (O35913 whole entry): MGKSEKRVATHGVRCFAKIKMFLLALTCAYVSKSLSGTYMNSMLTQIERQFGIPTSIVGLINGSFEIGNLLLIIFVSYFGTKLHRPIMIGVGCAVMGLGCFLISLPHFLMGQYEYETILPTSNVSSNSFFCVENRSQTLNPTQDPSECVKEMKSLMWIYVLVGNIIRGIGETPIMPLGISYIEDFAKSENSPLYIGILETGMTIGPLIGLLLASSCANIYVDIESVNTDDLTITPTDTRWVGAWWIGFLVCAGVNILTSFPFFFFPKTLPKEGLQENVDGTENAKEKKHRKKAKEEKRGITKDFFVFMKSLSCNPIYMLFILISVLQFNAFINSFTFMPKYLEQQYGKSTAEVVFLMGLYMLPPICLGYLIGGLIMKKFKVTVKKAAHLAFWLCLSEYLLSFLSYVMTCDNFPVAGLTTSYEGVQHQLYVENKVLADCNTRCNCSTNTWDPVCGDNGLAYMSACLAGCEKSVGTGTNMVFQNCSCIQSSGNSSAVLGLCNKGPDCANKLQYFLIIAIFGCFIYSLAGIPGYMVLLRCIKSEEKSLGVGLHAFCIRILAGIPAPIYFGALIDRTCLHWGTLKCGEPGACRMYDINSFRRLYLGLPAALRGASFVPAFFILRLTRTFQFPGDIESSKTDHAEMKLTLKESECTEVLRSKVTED

[2] = biological target: T2, Solute carrier organic anion transporter family member 1A4 (SLCO1A4, OATP1A4) (Rattus norvegicus, UniProt O35913); assay: as §1; settings: Xenopus laevis oocytes expressing the transporter
T2 sequence (O35913 whole entry): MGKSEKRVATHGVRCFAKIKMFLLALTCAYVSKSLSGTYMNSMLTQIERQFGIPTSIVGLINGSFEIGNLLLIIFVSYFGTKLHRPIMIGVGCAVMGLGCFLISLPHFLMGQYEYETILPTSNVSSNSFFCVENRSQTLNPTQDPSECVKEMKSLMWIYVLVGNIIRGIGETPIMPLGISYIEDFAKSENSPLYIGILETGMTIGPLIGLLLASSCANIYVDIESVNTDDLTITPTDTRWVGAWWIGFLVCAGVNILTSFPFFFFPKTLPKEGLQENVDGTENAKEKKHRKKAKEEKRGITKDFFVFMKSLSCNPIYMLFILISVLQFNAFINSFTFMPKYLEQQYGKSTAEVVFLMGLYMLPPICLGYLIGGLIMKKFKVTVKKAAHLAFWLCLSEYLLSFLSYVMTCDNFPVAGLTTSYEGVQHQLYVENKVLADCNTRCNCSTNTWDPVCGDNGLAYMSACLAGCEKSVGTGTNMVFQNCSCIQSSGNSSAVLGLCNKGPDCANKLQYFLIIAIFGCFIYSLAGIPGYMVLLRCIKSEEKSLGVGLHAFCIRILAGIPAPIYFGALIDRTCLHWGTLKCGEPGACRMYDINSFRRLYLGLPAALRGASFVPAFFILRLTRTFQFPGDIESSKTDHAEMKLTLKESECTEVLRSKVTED

[3] = substrate: C[C@]12CC[C@@H]3c4ccc(O)cc4CC[C@H]3[C@@H]1CC[C@@H]2O[C@@H]1O[C@H](C(=O)O)[C@@H](O)[C@H](O)[C@H]1O; assay: as §1
[4] = substrate: C[C@H]1O[C@@H](O[C@H]2[C@@H](O)C[C@H](O[C@H]3[C@@H](O)C[C@H](O[C@H]4CC[C@@]5(C)[C@H](CC[C@@H]6[C@@H]5C[C@@H](O)[C@]5(C)[C@@H](C7=CC(=O)OC7)CC[C@]65O)C4)O[C@@H]3C)O[C@@H]2C)C[C@H](O)[C@@H]1O; assay: as §1
[5] = substrate: C[C@]12CC[C@@H]3c4ccc(OS(=O)(=O)O)cc4CC[C@H]3[C@@H]1CCC2=O; assay: as §1

Molecule: CN(Cc1cnc2nc(N)nc(N)c2n1)c1ccc(C(=O)N[C@@H](CCC(=O)O)C(=O)O)cc1 [METHOTREXATE]
- Activity [1]: is not a substrate [-]

Molecule: C[C@@H]1O[C@@H](O[C@H]2C[C@@H](O)[C@]3(CO)[C@H]4[C@H](O)C[C@]5(C)[C@@H](C6=CC(=O)OC6)CC[C@]5(O)[C@@H]4CC[C@]3(O)C2)[C@H](O)[C@H](O)[C@H]1O [OUABAIN]
- Km [2]: 470 µM

B1: Solute carrier organic anion transporter family member 1A4 (Rattus norvegicus) (protein)
chain: MGKSEKRVATHGVRCFAKIKMFLLALTCAYVSKSLSGTYMNSMLTQIERQFGIPTSIVGLINGSFEIGNLLLIIFVSYFGTKLHRPIMIGVGCAVMGLGCFLISLPHFLMGQYEYETILPTSNVSSNSFFCVENRSQTLNPTQDPSECVKEMKSLMWIYVLVGNIIRGIGETPIMPLGISYIEDFAKSENSPLYIGILETGMTIGPLIGLLLASSCANIYVDIESVNTDDLTITPTDTRWVGAWWIGFLVCAGVNILTSFPFFFFPKTLPKEGLQENVDGTENAKEKKHRKKAKEEKRGITKDFFVFMKSLSCNPIYMLFILISVLQFNAFINSFTFMPKYLEQQYGKSTAEVVFLMGLYMLPPICLGYLIGGLIMKKFKVTVKKAAHLAFWLCLSEYLLSFLSYVMTCDNFPVAGLTTSYEGVQHQLYVENKVLADCNTRCNCSTNTWDPVCGDNGLAYMSACLAGCEKSVGTGTNMVFQNCSCIQSSGNSSAVLGLCNKGPDCANKLQYFLIIAIFGCFIYSLAGIPGYMVLLRCIKSEEKSLGVGLHAFCIRILAGIPAPIYFGALIDRTCLHWGTLKCGEPGACRMYDINSFRRLYLGLPAALRGASFVPAFFILRLTRTFQFPGDIESSKTDHAEMKLTLKESECTEVLRSKVTED
- Km [3]: 3 µM
- Km [4]: 0.24 µM
- Km [5]: 11 µM
